The source of these data is PMC6212840.

Like-named read-outs stand apart in the source and are kept apart here.

Experiment [1] concerns the target TbMP18-FL (aa 19-164) (Trypanosoma brucei). The experiment in a line: SEC. In general terms: Size exclusion chromatography separates by hydrodynamic size, large species first.
The target is the same in experiment [2].

By stoichiometry N is commonly meant a count of units in the complex or per binding partner. On to TbMP24-FL (aa 47-246) (natural protein), for which the stoichiometry N in experiment [1] is 1.5; in experiment [2], 1.1.
In experiment [1], TbMP18-FL (aa 19-164) (natural protein) had a stoichiometry N of 4.

B1: TbMP63-OB (aa 472-587) (domain or fragment)
chain: SAIGASWAETELIPHAQCVSNITIVGRVLDVSQASENVSHVTVFVEGERSGEEETLTLCCFGEVSQKIRGTLKRNATIFASGTLRLHPVYEASNNKYYVSPVVHVSMPTGTLAVIT
B1: in experiment [2], the stoichiometry N worked out at 0.67.
